The results in this text go back to US20140120109A1 (Regeneron, published 2014).

Sequences and labels used below:
T1: human TL1A, soluble, CHO-expressed, residues 72-251 of SEQ ID NO:244 with N-terminal His6-tag (human, UniProt O95150 72-251)
T1 construct: also called hTL1A; hTL1A (CHO)
T1 sequence: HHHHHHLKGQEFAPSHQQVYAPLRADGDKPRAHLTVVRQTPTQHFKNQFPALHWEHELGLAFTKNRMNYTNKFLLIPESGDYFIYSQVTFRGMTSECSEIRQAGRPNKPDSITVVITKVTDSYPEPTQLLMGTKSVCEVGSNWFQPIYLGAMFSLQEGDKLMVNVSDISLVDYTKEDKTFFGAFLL

T2: cynomolgus monkey TL1A, soluble, CHO-expressed, residues 72-251 of SEQ ID NO:248 with N-terminal His6-tag (cynomolgus monkey (Macaca fascicularis), UniProt O95150 72-251 (human entry))
T2 construct: also called MfTL1A; MfTL1A (CHO)
T2 chain: T1 sequence with F45L, I84V

T3: rat TL1A, soluble, CHO-expressed, residues 76-252 of SEQ ID NO:258 with N-terminal His6-tag (rat, UniProt Q8K3Y7 76-252)
T3 construct: also called rTL1A; rTL1A (CHO)
T3 sequence: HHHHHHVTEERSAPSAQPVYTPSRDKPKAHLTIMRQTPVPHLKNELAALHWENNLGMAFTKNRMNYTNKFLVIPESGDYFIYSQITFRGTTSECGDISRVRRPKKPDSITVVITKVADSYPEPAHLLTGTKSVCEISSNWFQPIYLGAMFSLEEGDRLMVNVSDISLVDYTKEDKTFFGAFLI

T4: full-length Fhm, human TL1A(Q167R), expressed on HEK293 cells (human, UniProt O95150 1-251)
T4 sequence: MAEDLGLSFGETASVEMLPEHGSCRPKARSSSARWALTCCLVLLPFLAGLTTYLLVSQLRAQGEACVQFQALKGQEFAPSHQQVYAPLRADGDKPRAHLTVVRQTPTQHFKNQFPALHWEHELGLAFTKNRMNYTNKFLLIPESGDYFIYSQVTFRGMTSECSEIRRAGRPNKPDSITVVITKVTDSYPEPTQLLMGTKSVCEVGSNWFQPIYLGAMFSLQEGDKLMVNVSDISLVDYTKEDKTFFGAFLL

B1: H4H1742P (antibody, human IgG4 S228P, V domains shown)
VH: EVQLVESGGGLVQPGGSLRLSCAASGFTFSNYVMNWVRQAPGKGLEWVSVISGSGGSTHYADSVKGRFTISRDNSKDALYLQMNSLRAEDTAVYYCAKGPLEAYYYYNGMDVWGQGTTVTVSS
VL: DIQLTQSPSFLSASVGDRVTITCWASQAISSYLAWYQHKPGRAPKLLIYSTSTLQSGVPSRFSGSGSGTEFTLTISSLQPEDFATYYCQQLNSYPTFGQGTKLEIK
B2: H4H1725P (antibody, human IgG4 S228P, V domains shown)
VH: QVQLVQSGAEVKKPGASVKVSCKASGYTFTGYYMHWVRQAPGQGLEWMGWIKPKSGGTNYVQKFQGRVTMTRDTSINTAYMELNNLKSDDTAVYYCATGGSQDASDFWGQGTMVTVSS
VL: DIQMTQSPSSVSASVGGRVTITCRASQDISIWLAWYQQKPGKAPNLLIYAASSLQSGVPSRFSGSGSGTDFTLTISSLQPEDFATYYCQQADSFPLTFGGGTKVEIK
B3: H4H1719P (antibody, human IgG4 S228P, V domains shown)
VH: EVQLVESGGGLVQPGRSLRLSCVASGFTFQDYAMHWVRQAPGKGLEWVSGINWISDDMGYADSVMGRFTISRDNAKNSLYLQMDSLRAEDTALYYCAKDKGLRFLDYVMDVWGQGTTVTVSA
VL: DIVMTQSPLSLPVTPGEPASISCRSTQSLLHRNGHNYLHWYLHKPGQSPQLLIHLGSNRASGVPDRFSGSGSGTDFTLKISRVEAEDVGVYYCMQALQTPYTFGQGTKLEIK
B4: H4H1738P (antibody, human IgG4 S228P, V domains shown)
VH: EVQLVESGGALVKPGGSLRLSCAVSGFTFINDWMNWVRQAPGKGLEWVGRIKSTTDGGTTDDAAPVKGRFTISRDDSKNTLYLQMNSLKTEDTAVYYCTRDRNRQRNYFYDGMDVWGQGTTVTVSA
VL: B3 VL with L9V, T26S, S28R, R32N, H35N, H39D, H43Q, H54Y, I80V
B5: H4H1745P (antibody, human IgG4 S228P, V domains shown)
VH: EVQLVESGGGLVQPGGSLRLSCAASGFTFSSYAMTWVRQAPGKGLEWVSGVSGRGGSTYYADSVKGRFTISRDNSKNTLYLQMNSLRAEDTAVYYCAYWDISSFDYWGQGTLVTVSS
VL: DIQLTQSPSFLSASVGDRVTITCWASQGISTYLAWYQQKPGKTPKLLIYAASTLQSGVPSRFSGSGSGTDFTLTISSLQPEDFATYYCQQFNSYPLTFGGGTKVEIK
B6: H4H1818N (antibody, human IgG4 S228P, V domains shown)
VH: RLQLVESGGGLVKPGGSLKLSCAASGFTISDYYMSWIRQAPGKGLEWVSYIGGSGSTIYYADSVKGRFTISRDNAKNSLYLQMNSLRAEDTAVYYCAREDADSYYYYGMDVWGQGTTVTVSS
VL: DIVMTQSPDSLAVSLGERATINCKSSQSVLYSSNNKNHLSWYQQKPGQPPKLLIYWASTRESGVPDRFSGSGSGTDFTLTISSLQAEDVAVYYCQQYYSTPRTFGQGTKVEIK
notes: human IgG4(S108P) form of H2M1818N

Changes are numbered by the printed parent chain. Numbers in names are those of the source.

The target in one assay is T1, human TL1A, soluble, CHO-expressed, …. Briefly: ELISA, blocks hTL1A (10 pM) binding hDcR3-Fc. In short, it runs like this: (§1)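 Competition sandwich ELISA: biotinylated CHO-expressed ligand (human TL1A, FHM Q167R variant, or cynomolgus TL1A) at fixed concentration preincubated with titrated antibody 1 h at 25 °C, then 1 h on hDR3-Fc or hDcR3-Fc coated wells. Bound ligand detected by streptavidin-HRP/TMB at 450 nm; sigmoidal dose-response fit.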
B1 registered an IC50 of 0.181 nM.

As for B2, the IC50 was 0.068 nM.

As to B3, the IC50 was 0.044 nM.

Regarding B4, the IC50 came out at 0.122 nM.

For B5, the half-inhibitory concentration (IC50) turned out to be 0.058 nM.

Consider B6, for which the IC50 turned out to be 0.232 nM.

Another assay addresses T2, cynomolgus monkey TL1A, soluble, …. Briefly: ELISA, blocks MfTL1A (50 pM) binding hDcR3-Fc. Summed up:
as §1
In general terms: ELISA stands for enzyme-linked immunosorbent assay.
In turn, B1 displayed a half-inhibitory concentration (IC50) of 0.127 nM.

Take B2: the 50% inhibitory concentration (IC50) amounted to 0.145 nM.

As for B3, the IC50 is 0.061 nM.

In turn, B4 returned a 50% inhibitory concentration (IC50) of 0.068 nM.

For B5, the IC50 came out at 0.118 nM.

In the case of B6, the half-inhibitory concentration (IC50) was 1.1 nM.

A further assay concerns the target T1, human TL1A, soluble, CHO-expressed, …. Put plainly: SPR 25C, mAb captured. Summed up: (§2)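 Biacore T100 SPR with captured mAb and soluble TL1A/Fhm analyte; ka and kd fitted to a 1:1 model assuming monomeric TL1A. KD = kd/ka; t1/2 (min) = ln2/(60·kd).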
The molecule B1 had a Kd of 0.0604 nM and a t1/2 of 12.6 h.

For the molecule B2, the dissociation constant (Kd) amounted to 0.0636 nM and the t1/2 was 3.08 h.

Molecule B3 displayed an equilibrium dissociation constant (Kd) of 0.481 nM and a t1/2 of 0.733 h.

B4 displayed a Kd of 0.608 nM and a t1/2 of 1.07 h.

Turning to B5, the affinity, expressed as Kd, was 0.164 nM and the t1/2 worked out at 2.87 h.

B6: the equilibrium dissociation constant (Kd) was 0.124 nM and the t1/2 was found to be 2 h.

In another assay the target is T2, cynomolgus monkey TL1A, soluble, …. Put plainly: SPR 25C, mAb captured. Summed up: as §2
Molecule B1 came in with a dissociation constant (Kd) of 0.115 nM and a t1/2 of 9.62 h.

B2: the Kd was 0.346 nM and the t1/2 turned out to be 1.07 h.

As to B3, the dissociation constant Kd worked out at 0.417 nM and the t1/2 came out at 0.75 h.

Molecule B4 registered a Kd of 0.361 nM and a t1/2 of 1.55 h.

As to B5, the equilibrium dissociation constant (Kd) was 0.115 nM and the t1/2 is 3.85 h.

For B6, the Kd turned out to be 0.119 nM and the t1/2 came to 2.03 h.

The target in a further assay is T3, rat TL1A, soluble, CHO-expressed, …. Put plainly: SPR 25C, mAb captured. In short, it runs like this: as §2
As for B1, binding was put at a Kd of 0.078 nM and the t1/2 was 2.4 h.

For the molecule B2, the dissociation constant Kd amounted to 0.317 nM and the t1/2 was 0.433 h.

B3 gave a Kd of 0.364 nM and a t1/2 of 0.633 h.

On to B4, for which the binding result is given as “no binding (tested: up to 100 nM)”.

B5 gave a dissociation constant Kd of 2.7 nM and a t1/2 of 0.0667 h.

For the molecule B6, the Kd was found to be 0.088 nM and the t1/2 is 1.53 h.

The target in another assay is T4, full-length Fhm, human TL1A(Q167R), …. Briefly: cell-based or functional assay.
Consider B1, for which the “IC50, reporter + 10,000 TL1A cells” value was determined as 8.39 nM.

In the case of B2, the “IC50, reporter + 10,000 TL1A cells” value was 0.94 nM.

For the molecule B3, the “IC50, reporter + 10,000 TL1A cells” value came out at 0.84 nM.

On to B4, for which the “IC50, reporter + 10,000 TL1A cells” value was 7.75 nM.

B5: the “IC50, reporter + 10,000 TL1A cells” value was found to be 2.12 nM.

Consider B6, for which the “IC50, reporter + 10,000 TL1A cells” value was determined as 1.42 nM.

A further assay concerns the target T1, human TL1A, soluble, CHO-expressed, …. Put plainly: cell-based or functional assay.
Turning to B1, the “Average % Blocking IFN-g, 3 ug/ml mAb” value worked out at 83%.

B2: the “Average % Blocking IFN-g, 3 ug/ml mAb” value amounted to 94%.

In the case of B3, the “Average % Blocking IFN-g, 3 ug/ml mAb” value turned out to be 78%.

Take B4: the “Average % Blocking IFN-g, 3 ug/ml mAb” value is 81%.

B5: the “Average % Blocking IFN-g, 3 ug/ml mAb” value was found to be 91%.

On to B6, for which the “Average % Blocking IFN-g, 3 ug/ml mAb” value came to 71%.

For a further assay the target is unchanged. Briefly: ELISA, blocks hTL1A (150 pM) binding hDR3-Fc. In short, it runs like this: as §1
The molecule B1 showed an IC50 of 0.064 nM.

B2 had a concentration for half-maximal inhibition (IC50) of 0.015 nM.

B3: the IC50 worked out at 0.022 nM.

The molecule B4 yielded an IC50 of 0.069 nM.

Regarding B5, the 50% inhibitory concentration (IC50) was 0.018 nM.

For B6, the IC50 came to 0.119 nM.

Usually IC50 stands for the concentration that gives 50% inhibition. The Kd is the constant that tells how readily two partners part at equilibrium.
